Assay [1] concerns the target TNF-α cell surface receptors on human HeLa and FS11 fibroblast cells (human). As to the kind of experiment: 125I-TNF-α binding to cells; control without urine concentrate, condition C (4° C. together with TNF-α).
The target is the same in assay [2]. The experiment in a line: 125I-TNF-α binding to cells; control without urine concentrate, condition A (4° C. 90′ prior to application of TNF-α).
Assay [3] has the same target. The experiment in a line: 125I-TNF-α binding to cells; control without urine concentrate, condition B (37° C. 90′ prior to application of TNF-α).
Assay [4] shares this target. As to the kind of experiment: 125I-TNF-α binding to cells; urine concentrate holding TNF Inhibitory Protein applied at 37° C. 90′ prior to TNF-α and removed (condition B).

Several values for one entry are separate records, joined by “and”; a condition that tells them apart may be missing. Identical values can stand only once.

TNF-α cell surface receptors on human HeLa and FS11 fibroblast cells (human), sequence (P19438 30-455): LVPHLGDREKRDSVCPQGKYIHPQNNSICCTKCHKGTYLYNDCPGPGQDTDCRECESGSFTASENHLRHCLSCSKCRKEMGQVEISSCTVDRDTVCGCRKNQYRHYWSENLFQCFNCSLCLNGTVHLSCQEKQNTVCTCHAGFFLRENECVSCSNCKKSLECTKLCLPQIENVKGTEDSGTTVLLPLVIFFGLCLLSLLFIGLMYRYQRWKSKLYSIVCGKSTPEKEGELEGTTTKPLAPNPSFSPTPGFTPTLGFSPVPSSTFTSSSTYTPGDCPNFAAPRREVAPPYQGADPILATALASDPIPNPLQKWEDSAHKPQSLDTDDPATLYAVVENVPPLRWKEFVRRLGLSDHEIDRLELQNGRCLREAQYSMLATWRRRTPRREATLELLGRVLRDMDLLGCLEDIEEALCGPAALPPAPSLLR

As for “Tumor Necrosis Factor-α (TNF-α) (from UniProt P01375 77-233) (ligand)”, the CPM is 4630 CPM in assay [1]; 5290 CPM in assay [2]; 5560 CPM in assay [3]; 4730 CPM and 4460 CPM in assay [4].

The values above are taken from US20050245731A1.
